According to publication PMC4066782, “The telomerase inhibitor Gno1p/PINX1 activates the helicase Prp43p during ribosome biogenesis” (Nucleic Acids Research, 2014):

Target: Prp43p-HIS (S. cerevisiae, UniProt P53131 1-767)
Test: cell-based or functional assay

Chain of Prp43p-HIS (P53131 whole entry): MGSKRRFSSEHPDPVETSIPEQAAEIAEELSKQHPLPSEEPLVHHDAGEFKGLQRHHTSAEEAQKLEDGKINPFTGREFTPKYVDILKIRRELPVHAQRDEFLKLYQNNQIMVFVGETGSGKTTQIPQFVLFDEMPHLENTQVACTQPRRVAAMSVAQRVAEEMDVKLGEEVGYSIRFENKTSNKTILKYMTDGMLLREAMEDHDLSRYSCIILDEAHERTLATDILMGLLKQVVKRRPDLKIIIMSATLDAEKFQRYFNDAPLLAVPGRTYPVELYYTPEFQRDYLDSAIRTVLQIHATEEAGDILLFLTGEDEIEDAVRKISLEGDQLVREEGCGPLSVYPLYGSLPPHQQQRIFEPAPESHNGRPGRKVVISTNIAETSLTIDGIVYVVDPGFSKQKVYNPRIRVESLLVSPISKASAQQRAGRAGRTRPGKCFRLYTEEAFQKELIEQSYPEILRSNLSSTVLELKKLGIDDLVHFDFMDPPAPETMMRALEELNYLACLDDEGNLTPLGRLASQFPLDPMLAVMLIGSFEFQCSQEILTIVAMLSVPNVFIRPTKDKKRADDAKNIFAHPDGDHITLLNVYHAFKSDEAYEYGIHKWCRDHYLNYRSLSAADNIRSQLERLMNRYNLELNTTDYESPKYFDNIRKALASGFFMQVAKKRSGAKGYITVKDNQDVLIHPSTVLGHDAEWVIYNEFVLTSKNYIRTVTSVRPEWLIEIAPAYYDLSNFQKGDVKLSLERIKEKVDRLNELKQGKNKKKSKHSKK

B1: GST-PINX1-HIS (natural protein, human, UniProt Q96BK5 1-328, looked up)
chain: MSMLAERRRKQKWAVDPQNTAWSNDDSKFGQRMLEKMGWSKGKGLGAQEQGATDHIKVQVKNNHLGLGATINNEDNWIAHQDDFNQLLAELNTCHGQETTDSSDKKEKKSFSLEEKSKISKNRVHYMKFTKGKDLSSRSKTDLDCIFGKRQSKKTPEGDASPSTPEENETTTTSAFTIQEYFAKRMAALKNKPQVPVPGSDISETQVERKRGKKRNKEATGKDVESYLQPKAKRHTEGKPERAEAQERVAKKKSAPAEEQLRGPCWDQSSKASAQDAGDHVQPPEGRDFTLKPKKRRGKKKLQKPVEIAEDATLEETLVKKKKKKDSK
- ATP hydrolysed by Prp43p-HIS after 60 min of incubation, with GST-PINX1-HIS against without (0.1 μM proteins, 100 μM ATP, 30°C): 9 fold
